Consider 60 sequences from the supplement of paper PMC10598134.

This data set can be described thus: collision cross section of modified peptide (TIMS, N2, iRT-aligned); higher = larger / more extended gas-phase ion. The procedure, abridged:
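Values are averages of 1–3 technical replicates of the most abundant feature for each charge state. Collision cross section was obtained from the Mason-Schamp equation after 1/K0 calibration with three reference ions and run-wise alignment to the median iRT peptide deviation. Synthetic peptide pools (iRT standard spiked 1:40) were separated on a 120-min nanoflow C18 gradient at 60 °C, analysed on a timsTOF Pro/HT (dda-PASEF, nitrogen, ~2.4 mbar) and identified with MaxQuant.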

Setting [1] is: charge state: 2, modification: Acetyl (K).
[2] abbreviates: charge state: 2, modification: Succinyl.
[3] abbreviates: charge state: 2, modification: Formyl.
Where [4] appears, read: charge state: 3, modification: HexNAc (ST).
Where [5] appears, read: charge state: 2, modification: Citrullination (R).
[6] abbreviates: charge state: 3, modification: Formyl.
The mark [7] stands for this setting: charge state: 2, modification: Propionyl.
Setting [8] is: charge state: 2, modification: Methyl (K).
The mark [9] stands for this setting: charge state: 3, modification: Methyl (K).
Setting [10] is: charge state: 2, modification: Crotonyl.
Setting [11] is: charge state: 3, modification: Crotonyl.
[12] abbreviates: charge state: 2, modification: Dimethyl (K).
Where [13] appears, read: charge state: 3, modification: Dimethyl (K).
Where [14] appears, read: charge state: 2, modification: HexNAc (ST).
[15] abbreviates: charge state: 2, modification: Butyryl.
[16] abbreviates: charge state: 3, modification: Butyryl.
Setting [17] is: charge state: 3, modification: Citrullination (R).
Setting [18] is: charge state: 3, modification: Trimethyl (K).
The mark [19] stands for this setting: charge state: 2, modification: Malonyl.
Setting [20] is: charge state: 2, modification: Methyl (R).
Setting [21] is: charge state: 3, modification: Methyl (R).
The mark [22] stands for this setting: charge state: 2, modification: hydroxyisobutyryl.
The mark [23] stands for this setting: charge state: 3, modification: Glutarylation.
[24] abbreviates: charge state: 2, modification: Phospho (Y).

± gives the standard deviation.

Sequence LLEQKTQESQK [_LLEQK(Acetyl (K))TQESQK_] showed a collision cross section under setting [1] of 392.69 ± 0.79 Å².

Under setting [2], ITASLCDLKSR [_ITASLCDLK(Succinyl)SR_] came in with a collision cross section of 384.23 ± 0.76 Å².

On to LLEQKTQESQK [_LLEQK(Formyl)TQESQK_], for which, under setting [3], the collision cross section is 386.78 ± 0.55 Å².

As for “TAGSSGVTAGRPRPTAR [_TAGSSGVTAGRPRPT(HexNAc (ST))AR_]”, the collision cross section under setting [4] is 527.29 ± 0.18 Å².

For the sequence “AGPNASIISLKSDK [_AGPNASIISLK(Formyl)SDK_]”, the collision cross section under setting [3] was found to be 404.66 ± 0.43 Å².

As to “GETASKLQSEISR [_GETASK(Succinyl)LQSEISR_]”, under setting [2], the collision cross section amounted to 399.77 ± 2 Å².

Sequence “AQPQDSRGGSK [_AQPQDSR(Citrullination (R))GGSK_]” came in with a collision cross section under setting [5] of 347.45 ± 0.9 Å².

Regarding “VGLQVVAVKAPGFGDNR [_VGLQVVAVK(Formyl)APGFGDNR_]”, the collision cross section runs as follows: under setting [3], 440.17 ± 1.2 Å²; under setting [6], 529.54 ± 3 Å².

Sequence “VLDSGAPIKIPVGPETLGR [_VLDSGAPIK(Acetyl (K))IPVGPETLGR_]” yielded a collision cross section under setting [1] of 463.33 ± 3.4 Å² and a collision cross section (charge state: 3, modification: Acetyl (K)) of 505.97 Å².

Sequence “GDIGETGVPGAEGPR [_GDIGETGVPGAEGP(Hydroxyproline)R_]” yielded a collision cross section (charge state: 2, modification: Hydroxyproline) of 384.38 ± 0.27 Å².

As for “VLTANSNPSSPSAAKR [_VLTANSNPSSPSAAK(Propionyl)R_]”, the collision cross section runs as follows: under setting [7], 429.75 ± 0.38 Å²; (charge state: 3, modification: Propionyl) 528.16 ± 0.65 Å².

In turn, “LQDVSGQLSSSKK [_LQDVSGQLSSSK(Methyl (K))K_]” displayed a collision cross section under setting [8] of 404.82 ± 1.9 Å² and a collision cross section under setting [9] of 465.49 ± 8.7 Å².

Turning to “PASGAGAGAGAGKR [_PASGAGAGAGAGK(Crotonyl)R_]”, the collision cross section by setting is: under setting [10], 364.92 ± 9.9 Å²; under setting [11], 464.44 ± 2.8 Å².

Sequence “GEVGAGAGPGAQAGPSAKR [_GEVGAGAGPGAQAGPSAK(Dimethyl (K))R_]” returned a collision cross section under setting [12] of 422.35 ± 0.53 Å² and a collision cross section under setting [13] of 490.58 ± 1.6 Å².

On to SISQSISGQK [_S(HexNAc (ST))ISQSISGQK_], for which the collision cross section under setting [14] turned out to be 366.39 ± 0.12 Å².

Turning to “IGSLDNITHVPGGGNK [_IGS(HexNAc (ST))LDNITHVPGGGNK_]”, the collision cross section under setting [4] is recorded as 493.45 ± 0.96 Å².

“ASNAAVKLAESK [_ASNAAVK(Dimethyl (K))LAESK_]”: the collision cross section under setting [12] came out at 387.86 ± 0.56 Å² and the collision cross section under setting [13] came out at 452.98 ± 1.6 Å².

On to “ATVASSTQKFQDLGVK [_ATVASSTQK(Butyryl)FQDLGVK_]”, for which the collision cross section under setting [15] is reported as 453.04 ± 1.1 Å² and the collision cross section under setting [16] is recorded as 495.56 ± 1.9 Å².

Under setting [1], “SGKFTQQDIDEAK [_SGK(Acetyl (K))FTQQDIDEAK_]” gave a collision cross section of 412.93 ± 2.8 Å².

In turn, “LFVGGIKEDTEEHHLR [_LFVGGIK(Formyl)EDTEEHHLR_]” returned a collision cross section under setting [6] of 535.03 ± 1.3 Å².

Regarding VGEFSGANKEK [_VGEFSGANK(Acetyl (K))EK_], under setting [1], the collision cross section is on record as 363.56 ± 0.5 Å².

In the case of “THLGEALAPLSK [_THLGEALAPLS(HexNAc (ST))K_]”, the collision cross section by setting is: under setting [14], 397.68 ± 0.13 Å²; under setting [4], 475.05 ± 25 Å².

With “YEQEHAAIQDKLFQVAK [_YEQEHAAIQDK(Succinyl)LFQVAK_]”, the collision cross section (charge state: 3, modification: Succinyl) turned out to be 518.31 ± 1.6 Å².

On to “DKALPLEAEVAPVK [_DK(Methyl (K))ALPLEAEVAPVK_]”, for which the collision cross section is recorded as 408.8 ± 1.9 Å² under setting [8] and 507.57 ± 2 Å² under setting [9].

“GSYLGGYSAGRGIYSR [_GSYLGGYSAGR(Citrullination (R))GIYSR_]”: the collision cross section reads like this: under setting [5], 429.9 ± 0.2 Å²; under setting [17], 475.97 ± 0.76 Å².

SKLLFSNTAAQK [_SK(Biotin)LLFSNTAAQK_] showed a collision cross section (charge state: 2, modification: Biotin) of 417.26 ± 2.9 Å².

As to “LQDVSGQLSSSKK [_LQDVSGQLSSSK(Trimethyl (K))K_]”, the collision cross section reads like this: (charge state: 2, modification: Trimethyl (K)) 417.06 ± 1.1 Å²; under setting [18], 475.09 ± 1.5 Å².

As for “GRGTGEAEEEYVGPR [_GR(Citrullination (R))GTGEAEEEYVGPR_]”, the collision cross section was 411.48 ± 0.42 Å² under setting [5] and 487 ± 5.6 Å² under setting [17].

As to LEQVEKELLR [_LEQVEK(Crotonyl)ELLR_], the collision cross section under setting [10] stood at 389.19 ± 0.8 Å².

Regarding “GTITVSAQELKDNR [_GTITVSAQELK(Malonyl)DNR_]”, the collision cross section under setting [19] is given as 419.75 ± 0.051 Å².

As for SLKLNTAEDAK [_SLK(Crotonyl)LNTAEDAK_], the collision cross section under setting [10] was 378.17 ± 0.26 Å².

For “TVSKVDDFLANEAK [_TVSK(Malonyl)VDDFLANEAK_]”, the collision cross section under setting [19] is recorded as 420.45 ± 0.57 Å².

Consider “DSSPTTNSKLSALQR [_DSSPTTNSK(Crotonyl)LSALQR_]”, for which the collision cross section came out at 436.18 ± 0.54 Å² under setting [10] and 499.72 ± 1.3 Å² under setting [11].

Regarding “GADFLVTEVENGGSLGSKK [_GADFLVTEVENGGSLGSK(Methyl (K))K_]”, the collision cross section runs as follows: under setting [8], 494.56 Å²; under setting [9], 538.26 Å².

Sequence “IHVQSSSDSSDEPAEKR [_IHVQSSSDSSDEPAEK(Trimethyl (K))R_]” registered a collision cross section under setting [18] of 528.1 ± 1.6 Å².

In the case of DFDTALKHYDK [_DFDTALK(Propionyl)HYDK_], the collision cross section under setting [7] turned out to be 403.21 Å².

As to “IHVQSSSDSSDEPAEKR [_IHVQSSSDSSDEPAEK(Dimethyl (K))R_]”, the collision cross section under setting [13] came to 519.62 ± 3.4 Å².

Turning to “FSHSVQNSERGK [_FSHSVQNSER(Methyl (R))GK_]”, the collision cross section is listed as 405.91 ± 1.3 Å² under setting [20] and 465.06 ± 2.1 Å² under setting [21].

With RGGFAVQAK [_R(Methyl (R))GGFAVQAK_], the collision cross section under setting [20] is 338.01 ± 1.4 Å².

Turning to LAEEENKAK [_LAEEENK(Butyryl)AK_], the collision cross section under setting [15] came to 353.86 ± 0.84 Å².

Sequence LAEEENKAK [_LAEEENK(Succinyl)AK_] came in with a collision cross section under setting [2] of 348.59 ± 0.23 Å².

In the case of “IINEPTAAAIAYGLDKK [_IINEPTAAAIAYGLDK(Formyl)K_]”, the collision cross section is, setting by setting: under setting [3], 458.24 ± 1.2 Å²; under setting [6], 548.84 ± 1.7 Å².

“FGTINIVHPKLGSYTK [_FGTINIVHPK(Crotonyl)LGSYTK_]”: under setting [11], the collision cross section was found to be 553.88 ± 2 Å².

For “SGNLTEDDKHNNAK [_SGNLTEDDK(Formyl)HNNAK_]”, the collision cross section was 415.1 ± 1.8 Å² under setting [3] and 466.8 ± 1.3 Å² under setting [6].

GEVQVSDKER [_GEVQVSDK(Succinyl)ER_]: under setting [2], the collision cross section is listed as 361.33 ± 0.24 Å².

Regarding GRGGPGPAQR [_GR(Methyl (R))GGPGPAQR_], the collision cross section came to 327.6 ± 3 Å² under setting [20] and 431.84 ± 5.1 Å² under setting [21].

As for “TQAYQDQKPGTSGLR [_TQAYQDQK(Butyryl)PGTSGLR_]”, the collision cross section is, setting by setting: under setting [15], 427.73 ± 0.77 Å²; under setting [16], 479.17 ± 3.5 Å².

As to “DYSAPVNFISAGLKK [_DYSAPVNFISAGLK(Malonyl)K_]”, the collision cross section is recorded as 442.5 ± 1.7 Å² under setting [19] and 530.16 Å² (charge state: 3, modification: Malonyl).

For the sequence “LQLEIDQKK [_LQLEIDQK(hydroxyisobutyryl)K_]”, the collision cross section under setting [22] is reported as 371.26 ± 0.27 Å².

As to “SPPLPEHQKIPCNSAEPK [_SPPLPEHQK(Gluratylation)IPCNSAEPK_]”, under setting [23], the collision cross section is listed as 541.53 Å².

Regarding “SKHLQEQLNELK [_SK(Gluratylation)HLQEQLNELK_]”, the collision cross section runs as follows: (charge state: 2, modification: Glutarylation) 423.49 ± 0.97 Å²; under setting [23], 496.16 ± 2 Å².

As for “VSPASSVDSNIPSSQGYKK [_VSPASSVDSNIPSSQGYK(Butyryl)K_]”, the collision cross section under setting [15] is recorded as 463.23 ± 2.7 Å² and the collision cross section under setting [16] was determined as 559.88 ± 1.1 Å².

As to “ALYETELADAR [_ALY(Phospho (Y))ETELADAR_]”, under setting [24], the collision cross section was 383.83 ± 0.063 Å².

“AVSILPLLGHGVPRLPPGR [_AVSILPLLGHGVPR(Citrullination (R))LPPGR_]” came in with a collision cross section under setting [17] of 569.33 Å².

Sequence “YIEIYVQKVNPSR [_YIEIYVQK(Succinyl)VNPSR_]” returned a collision cross section under setting [2] of 436.15 Å².

The sequence “TGGTQTDLFTCGKCK [_TGGTQTDLFTCGK(hydroxyisobutyryl)CK_]” returned a collision cross section under setting [22] of 448.92 Å².

In turn, TSYAQHQQVR [_TSY(Phospho (Y))AQHQQVR_] registered a collision cross section under setting [24] of 370.43 ± 0.064 Å² and a collision cross section (charge state: 3, modification: Phospho (Y)) of 475.13 ± 0.98 Å².

As for “FLQEFYQDDELGKK [_FLQEFYQDDELGK(Succinyl)K_]”, under setting [2], the collision cross section is 450.32 ± 0.96 Å².

Sequence DHLSDKESK [_DHLSDK(Acetyl (K))ESK_] displayed a collision cross section under setting [1] of 350.98 ± 1.6 Å².

With “PASGAGAGAGAGKR [_PASGAGAGAGAGK(GlyGly (K))R_]”, the collision cross section is given as 395.09 ± 1.4 Å² (charge state: 2, modification: GlyGly (K)) and 472.77 ± 1.1 Å² (charge state: 3, modification: GlyGly (K)).
